Measurements from US20190194268A1 (DONALD DANFORTH PLANT SCIENCE CENTER, published 2019).
Where “and” joins values, the source holds several entries; their conditions need not be identical. Equal values may be shown once. Entries after “also recorded” stand apart in the source; their conditions may differ. Read-outs that look alike come from different tables or passages of the source.

What was measured:
Verticillium dahliae = conditions: low salt in vitro assay conditions; U.S. Pat. No. 6,916,970; cited from earlier work
Fusarium culmorum = conditions: low salt in vitro assay conditions; U.S. Pat. No. 6,916,970; cited from earlier work
F. graminearum PH-1 = type: cell-based, Fusarium graminearum
[1] = protein-lipid overlay (PIP Strips); type: binding
Procedure: (§1) To test the binding properties of MtDefS peptide A (MtDefS Peptide A; SEQ ID NO:4) and MtDef5FL1 (SEQ ID NO:7), a protein-lipid overlay experiment was performed using PIP Strips™ (2×6 cm nitrocellulose membranes) that are spotted with 100 pmol of various biologically active lipids (Echelon Biosciences, Salt Lake City, Utah). Briefly, lipid strips were blocked with 10 mL of blocking buffer, PBS-T/3% fat free BSA for 12-16 h at 4° C. with gentle agitation. The blocking buffer was discarded and the lipid strips were incubated with 5 mL of PBS-T/3% fat free BSA containing 1 μg/ml of MtDef5 peptide A or MtDef5FL1 for 60 min at 4° C. After hybridization, protein solution was discarded and the strips were then washed with PBS-T three times with gentle agitation for 20 minutes each at room temperature. The protein-lipid interactions were detected by subsequently incubating lipid strips with rabbit anti-MtDef5 peptide A derived synthetic peptide (1 μg/ml) diluted in 5 mL of blocking buffer with gentle agitation for 60 min at 4° C. The lipid strips were washed with PBS-T two times with gentle agitation, for 15 minutes each wash, at room temperature. HRP-conjugated Goat Anti-Rabbit IgG secondary antibody (Thermo Scientific, Cat no: SA 1-9510) diluted 1:4000 in blocking buffer was added to the lipid strips and incubated for 60 min at 4° C. After two washes with PBS-T, chemiluminescence was detected using SuperSignal® West Femto Maximum Sensitivity substrate kit (Thermo Scientific, Cat no: 34094) following the manufacturer's protocol.
(§2) To test the binding properties of MtDef5 and its γ-core motif variants, a protein-lipid overlay experiment was performed using PIP Strips™ (2×6 cm nitrocellulose membranes) that are spotted with 100 pmol of various biologically active lipids, respectively (Echelon Biosciences, Salt Lake City, Utah). To determine relative degree of the binding of MtDef5, PIP Array (Echelon Biosciences, UT) pre-spotted with concentration gradient of various phosphoinositides was used. Briefly, lipid strips and arrays were blocked with 10 mL of blocking buffer, PBS-T/3% fat free BSA for 12-16 h at 4° C. with gentle agitation. The blocking buffer was discarded and the lipid strips and arrays were incubated with 5 mL of PBS-T/3% fat free BSA, containing 3 μg/ml of MtDef5 or its variants for 60 min at 4° C. After hybridization, protein solution was discarded and the strips and arrays were then washed with PBS-T three times with gentle agitation for 20 minutes each at room temperature. The protein-lipid interactions were detected by subsequently incubating lipid strips and arrays with rabbit anti-MtDef5 derived synthetic peptide (1 μg/ml) antibody diluted in 5 mL of blocking buffer with gentle agitation for 60 min at 4° C. The lipid strips and arrays were washed with PBS-T two times with gentle agitation, for 15 minutes each wash, at room temperature. HRP-conjugated Goat Anti-Rabbit IgG secondary antibody (Thermo Scientific, Cat no: SA 1-9510) diluted 1:4000 in blocking buffer was added to the lipid strips and arrays and incubated for 60 min at 4° C. After two washes with PBS-T, chemiluminescence was detected using SuperSignal® West Femto Maximum Sensitivity substrate kit (Thermo Scientific, Cat no: 34094) following the manufacturer's protocol.

[2] = protein-lipid overlay (PIP Strips, PIP Array); type: binding; conditions: for binding to PI3P, PI4P and PI5P: Example 2, PIP Strips, 1 μg/ml protein, FIG. 9
Procedure: as §1
as §2, with “After hybridization, protein solution was discarded and the strips and arrays were then washed with PBS-T three times with gentle agitation for 20 minutes each at room temperature.” left out, “The lipid strips and arrays were washed with PBS-T two times with gentle agitation, for 15 minutes each wash, at room temperature. HRP-conjugated Goat Anti-Rabbit IgG secondary antibody (Thermo Scientific, Cat no: SA 1-9510) diluted 1:4000 in blocking buffer was added to the lipid strips and arrays and incubated for 60 min at 4° C.” left out

Fusarium virguliforme = type: cell-based
F. graminearum = type: cell-based, Fusarium graminearum
Botrytis cinerea = type: cell-based; conditions: Example 6, FIG. 15
Alternaria brassicicola = type: cell-based; conditions: Example 6, FIG. 15
[3] = phospholipid binding / protein-lipid overlay; conditions: Example 6, PIP strip, 3 μg/ml protein, FIG. 18A
Procedure: as §2, with “After hybridization, protein solution was discarded and the strips and arrays were then washed with PBS-T three times with gentle agitation for 20 minutes each at room temperature.” left out, “The lipid strips and arrays were washed with PBS-T two times with gentle agitation, for 15 minutes each wash, at room temperature. HRP-conjugated Goat Anti-Rabbit IgG secondary antibody (Thermo Scientific, Cat no: SA 1-9510) diluted 1:4000 in blocking buffer was added to the lipid strips and arrays and incubated for 60 min at 4° C.” left out

N. crassa = type: cell-based, Neurospora crassa
[4] = protein cross-linking (BS3) oligomerization assay; conditions: SDS-PAGE, FIG. 19, FIG. 23
Procedure: (§3) To determine the oligomeric status of MtDef5FL1 and its γ-core motif variants, protein cross-linking experiments were performed in the presence or absence of PIPs cross-linked with bis[sulfosuccinimidyl] suberate (BS3) substrate. Briefly, MtDef5 and its γ-core motif variants, prepared in 1× PBS buffer, at 1.5 mg/ml (5 μl) were incubated with 2.73 mM PI(3)P or PI(4)P or PI(5)P (1.5 μl) at room temperature for 30 min. The cross-linking reaction was initiated by addition of freshly dissolved water soluble 12.5 mM BS3 (0.5 μl) and incubated for 30 min at room temperature. After crosslinking, samples were reduced with 100 mM dithiothreitol (DTT) and separated on a 4-20% (Bio-Rad, TGX Stain-Free™ precast gels) SDS-PAGE. The oligomerization pattern was visualized using a Bio-Rad ChemiDoc XRS+ system.

[5] = test system: F. graminearum conidia and germlings; type: cell-based, Fusarium graminearum; conditions: DyLight550-labeled, 3μM, 3 hr, FIG. 17
[6] = test system: Colletotrichum higginsianum; type: cell-based; conditions: Example 6, FIG. 15
Neurospora crassa = type: cell-based
F. virguliforme = type: cell-based, Fusarium virguliforme
[7] = molecular target: the molecule itself; assay: BS3 cross-linking with PIP, SDS-PAGE; self-oligomerization
Procedure: as §3

[8] = Example 6, FIG. 14, read-out: IC50 value against F. graminearum
[9] = activity of the indicated protein against Fusarium graminareum, Table 1, read-out: IC50 (nm)
[10] = Example 2, PIP Strips, 1 μg/ml protein, FIG. 9
[11] = Example 6, PIP strip, 3 μg/ml protein, FIG. 18A

For “MsDef1: Alfalfa (Medicago sativa) Defensin 1, SEQ ID NO:79 (RTCENLADKYRGPCFSGCDTHCTTKENAVSGRCRDDFRCWCTKRC; listed as Medicago sativa)”, the “IC50, Verticillium dahliae growth” value (Verticillium dahliae) is given as 4 µg/mL and the “IC50, Fusarium culmorum growth” value (Fusarium culmorum) is given as 1 µg/mL.

For “MtDef4: Medicago truncatula defensin peptide, SEQ ID NO:76 (RTCESQSHKFKGPCASDHNCASVCQTERFSGGHCRGFRRRCFCTTHC; listed as Medicago truncatula) [reference compound]”, the “minimal inhibitory concentration (MIC or IC100) against F. graminearum” value (F. graminearum PH-1; Example 6, FIG. 14) was 6 µM and the IC50 (F. graminearum PH-1; [8]) was 750 to 1500 nM.

In the case of “TPP3: Tomato (Solanum lycopersicum) defensin peptide, SEQ ID NO:83 (QQICKAPSQTFPGLCFMDSSCRKYCIKEKFTGGHCSKLQRKCLCTKPC; listed as Solanum lycopersicum) [reference compound]”, the IC50 (F. graminearum PH-1; [9]) is reported as 500 nM.

“NaD1: Nicotiana alata defensin peptide, SEQ ID NO:81 (RECKTESNTFPGICITKPPCRKACISEKFTDGHCSKILRRCLCTKPC; listed as Nicotiana alata) [reference compound]” gave an IC50 (F. graminearum PH-1; [9]) of 500 nM.

For “MtDef5A: single 50-amino acid MtDef5 defensin peptide A, SEQ ID NO:4 (KLCQKRSTTWSGPCLNTGNCKRQCINVEHATFGACHRQGFGFACFCYKKC; listed as Medicago truncatula)”, the “binding to PI3,4P2” value [1, 10] was “also binds”, the “binding to PI3,5P2” value [1, 10] was “also binds” and the “binding to PI4,5P2” value [1, 10] was “also binds”. For the same molecule, the “binding to PS” value [1, 10] was “fails to bind”, the IC50 (F. graminearum PH-1; [9]) was 500 to 750 nM and the “binding to PI3P, PI4P and PI5P” value [2] was “much less affinity than MtDef5FL1”.

B1: MtDef5FL1: Medicago truncatula protein with MtDef5 defensin peptides A and B connected by a 7-amino acid linker; SEQ ID NO:7, expressed in Pichia (protein, listed as Medicago truncatula)
chain: CQKRSTTWSGPCLNTGNCKRQCINVEHATFGACHRQGFGFACFCYKKCAPKKVEPKLCERRSKTWSGPCLISGNCKRQCINVEHATSGACHRQGIGFACFCKKKC
For B1, the “IC100 value against F. virguliforme” value (Fusarium virguliforme) was 0.18 µM, the “antifungal activity against F. virguliforme” value (Fusarium virguliforme) was “potent antifungal activity” and the “concentration inhibiting conidial germination completely (100% growth inhibition)” value (Fusarium virguliforme) was 0.18 µM. For the same molecule, the IC50 (Fusarium virguliforme; read-out: IC50 value against F. virguliforme) was 90 nM, the “SG uptake (plasma membrane permeabilization)” value (F. graminearum; 0.180 μM (IC100) protein + 0.5 μm SG, 2 hrs, FIG. 6) was “SG uptake was observed” and the “SG uptake in hyphal cells” value (F. graminearum; 0.75 μM MtDef5FL1, 3 hr, FIG. 16) was “SG uptake was visible”. The “antifungal activity against Botrytis cinerea (Bci)” value (Botrytis cinerea) was “potent antifungal activity”, the “antifungal activity against Alternaria brassicicola” value (Alternaria brassicicola) was “potent antifungal activity” and the “binding to PI3,4P2” value [1, 10] was “binds to a lesser extent”. For the same molecule, the “binding to PI3,5P2” value [1, 10] was “binds to a lesser extent”, the “binding to PI4,5P2” value [1, 10] was “binds to a lesser extent” and the “binding to PS” value [1, 10] was “binding to PS, is generated”. The “binding to PI3,5P2” value [1, 11] was “binds to a lesser extent”, the “binding to PI4,5P2” value [1, 11] was “binds to a lesser extent” and the “binding to phosphatidylserine (PS)” value [1, 11] was “binds to a lesser extent”. The “binding to phoshatidic acid (PA)” value [3] was “binds to a lesser extent”, the “SG uptake (plasma membrane permeabilization)” value (N. crassa) was “SG uptake was observed” and the “SG uptake in hyphal cells” value (N. crassa) was “SG uptake was visible”. For the same molecule, the “oligomerization in presence of PIPs” value [4] was “formed higher-order oligomers only in the presence of PIPs; also recorded: forms higher order oligomers in presence of PIPs”, the “internalization and localization in fungal cells” value [5] was “is internalized by fungal cells; also recorded: diffuse localization within the cytoplasm” and the “antifungal activity against Colletotrichum higginsianum” value [6] was “potent antifungal activity”. The “IC100 value against F. graminearum” value (F. graminearum PH-1; Example 1, FIG. 5A) was 0.18 µM, the IC50 (F. graminearum PH-1; Example 1, FIG. 5A, read-out: IC50 value against F. graminearum) was 90 nM and the “minimal inhibitory concentration (MIC or IC100) against F. graminearum” value (F. graminearum PH-1; Example 6, FIG. 14) was 0.75 µM. The “minimal inhibitory concentration (MIC or IC100) against F. graminearum” value (F. graminearum PH-1; Example 6, FIG. 14, listed as MtDef5) was 0.7 to 0.75 µM, the IC50 (F. graminearum PH-1; [8]) was 250 to 300 nM and the IC50 (F. graminearum PH-1; [9]) was 90 nM. The “potency relative to MtDef4, based on the MIC values” (F. graminearum PH-1; against F. graminearum) was 3 to 5 fold, the “concentration inhibiting conidial germination completely (100% growth inhibition)” value (F. graminearum PH-1; microscopic observation after 14-16 hr incubation, FIG. 5B) was 0.18 µM and the “IC100 value against N. crassa” value (Neurospora crassa) was 0.18 µM. For the same molecule, the “concentration inhibiting conidial germination completely (100% growth inhibition)” value (Neurospora crassa) was 0.18 µM, the “minimal inhibitory concentration (MIC or IC100) against Neurospora crassa” value (Neurospora crassa) was 0.7 to 0.75 µM and 0.75 µM and the IC50 (Neurospora crassa; read-out: IC50 value against N. crassa) was 90 nM. The IC50 (Neurospora crassa; read-out: IC50 value against Neurospora crassa) was 250 to 300 nM, the “SG uptake (plasma membrane permeabilization)” value (F. virguliforme) was “SG uptake was observed” and the “binding to PI3P, PI4P and PI5P” value [2] was “strongly binds; also recorded: significantly increases its binding affinity”. The “binding to PI3P, PI4P and PI5P (PIPs)” value ([2]; Example 6, PIP strip, 3 μg/ml protein, FIG. 18A, FIG. 22) was “strongly binds” and the “amount of PIP per spot at which binding to all three PIPs was observed” value ([2]; PIP Array, FIG. 18B) was no more than 12.5 pmoles per spot.

B2: MtDef5FL1_V1 (other)
chain: KLCQAASTTWSGPCLNTGNCKRQCINVEHATFGACAAQGFGFACFCYKKCAPKKVEPKLCEAASKTWSGPCLISGNCKRQCINVEHATSGACAAQGIGFACFCKKKC
notes: Alanine variant expressed in P. pastoris; also called MtDef5FL1 γ-core motif variant V1
For B2, the “oligomerization in presence of PIPs” value [4] was “no formation of higher order oligomers” and the binding result [7] was “no binding (tested: 1.5 mg/ml protein)”.
